Tests used:
[1] = system: C[C@@H](O)[C@H]1C(=O)N2C(C(=O)O)=C(SCCN=CN)C[C@H]12; test: purified protein; conditions: 50 mM sodium phosphate, pH 7.4, 22°C
[2] = system: C[C@@H](O)[C@H]1C(=O)N2C(C(=O)O)=C(S[C@@H]3CN[C@H](C(=O)Nc4cccc(C(=O)O)c4)C3)[C@H](C)[C@H]12; test: purified protein; conditions: 50 mM sodium phosphate, pH 7.4, 22°C
[3] = system: C[C@@H](O)[C@H]1C(=O)N2C(C(=O)O)=C(S[C@@H]3CN[C@H](C(=O)N(C)C)C3)[C@H](C)[C@H]12; test: purified protein; conditions: 50 mM sodium phosphate, pH 7.4, 22°C
[4] = system: CC1(C)S[C@@H]2[C@H](NC(=O)[C@H](N)c3ccccc3)C(=O)N2[C@H]1C(=O)O; test: purified protein; conditions: 50 mM sodium phosphate, pH 7.4, 22°C
[5] = system: C[C@@H](O)[C@H]1C(=O)N2C(C(=O)O)=C(S[C@@H]3CN[C@H](CNS(N)(=O)=O)C3)[C@H](C)[C@H]12; test: purified protein; conditions: 50 mM sodium phosphate, pH 7.4, 22°C
ADC-1 = biological target: T1, ADC-1 (Acinetobacter baumannii, UniProt Q9L4R5); test: X-ray crystal structure of acyl-enzyme (soak); conditions: covalent; acyl-enzyme at Ser64; two binding modes, monomers A and B
T1 construct: gene ampC; expressed and purified as in earlier work (gene in pET24a(+)); dimer in asymmetric unit

Work on ADC-1 (Acinetobacter baumannii) yielded a Km [1] of 1.3 ± 0.2 µM, a kcat [1] of 0.001 s⁻¹ and a kcat/Km [1] of 810 M⁻¹ s⁻¹. For the same molecule, the kcat [2] was 0.00037 s⁻¹, the kcat/Km [2] was at least 370 M⁻¹ s⁻¹ and the Km [3] was 11 ± 1 µM. For the same molecule, the kcat [3] was 0.0034 s⁻¹ and the kcat/Km [3] was 310 M⁻¹ s⁻¹.
In the case of ADC-68 (Acinetobacter baumannii), the Km [1] is reported as 1.0 ± 0.2 µM, the kcat [1] is reported as 0.0036 ± 0.0001 s⁻¹ and the kcat/Km [1] is reported as 3600 ± 700 M⁻¹ s⁻¹. For the same molecule, the Km [2] was 3.5 ± 0.7 µM, the kcat [2] was 0.011 ± 0.001 s⁻¹ and the kcat/Km [2] was 3300 ± 700 M⁻¹ s⁻¹. For the same molecule, the Km [3] was 50 ± 4 µM, the kcat [3] was 0.028 ± 0.001 s⁻¹ and the kcat/Km [3] was 550 ± 40 M⁻¹ s⁻¹. It also gave a kcat [4] of 3.2 ± 0.1 s⁻¹, a kcat/Km [4] of at least 650000 M⁻¹ s⁻¹ and a Km [5] of 6.0 ± 0.4 µM. It also gave a kcat [5] of 0.0049 ± 0.0001 s⁻¹ and a kcat/Km [5] of 820 ± 60 M⁻¹ s⁻¹.
`C[C@@H](O)[C@H]1C(=O)N2C(C(=O)O)=C(S[C@@H]3CN[C@H](C(=O)Nc4cccc(C(=O)O)c4)C3)[C@H](C)[C@H]12` [ETP, ertapenem] was tested, and the “X-ray crystal structure of acyl-enzyme (soak)” value (ADC-1) was “The crystal structure of the ADC-1–ertapenem acyl–enzyme complex shows a clear dimorphism between the two monomers”.

— publication PMC12153350, “Evolution of carbapenemase activity in the class C β-lactamase ADC-1” (mBio, 2025)
